Assay results: patent publication US9315563B2, “Peptides that inhibit angiotensin converting enzyme and peptides with antioxidant activity purified from ovotransferrin and methods of producing and using the same” (The Governors of the University of Alberta, priority 2009, dated 2016)

Test: ORAC-FL assay (oxygen radical absorbance capacity)
Settings: ovotransferrin hydrolysates
Experimental: Briefly, 80 mM AAPH and 200 nM fluorescein in 75 mM phosphate buffer at pH 7.4 were prepared for each experiment. For each run, 20 μL of antioxidant, and 80 μL of phosphate buffer (or 100 μL of Trolox standard solutions at final concentrations of 1 to 8 μM) were placed in wells of a 96-well microplate, followed by addition of 50 μL of the fluorescein solution. The mixture was preincubated for 15 min at 37° C. 50 μL of AAPH solution was added rapidly using a multichannel pipet. The microplate was immediately placed in a Fluoroskan Ascent microplate reader (Thermo Electron Corporation) with 485-P excitation and 538-P emission filters and the fluorescence recorded every minute for 100 min. All readings were recorded using Fluoroskan Ascent software. The area under the curve of fluorescence decay (AUC) was calculated using Graphpad prism software (trial version). Regression equations between AUC and antioxidant concentrations were calculated for all the samples. The ORAC value was calculated by dividing the slope of sample regression curve by the slope of Trolox regression curve. Final ORAC values were expressed as μmol of Trolox equivalent/mg of protein or peptide.

B1: Unhydrolyzed ovotransferrin: egg ovotransferrin, un-hydrolyzed parent protein (protein, UniProt P02789 20-705, looked up)
Ovotransferrin: APPKSVIRWCTISSPEEKKCNNLRDLTQQERISLTCVQKATYLDCIKAIANNEADAISLDGGQAFEAGLAPYKLKPIAAEVYEHTEGSTTSYYAVAVVKKGTEFTVNDLQGKTSCHTGLGRSAGWNIPIGTLLHRGAIEWEGIESGSVEQAVAKFFSASCVPGATIEQKLCRQCKGDPKTKCARNAPYSGYSGAFHCLKDGKGDVAFVKHTTVNENAPDQKDEYELLCLDGSRQPVDNYKTCNWARVAAHAVVARDDNKVEDIWSFLSKAQSDFGVDTKSDFHLFGPPGKKDPVLKDLLFKDSAIMLKRVPSLMDSQLYLGFEYYSAIQSMRKDQLTPSPRENRIQWCAVGKDEKSKCDRWSVVSNGDVECTVVDETKDCIIKIMKGEADAVALDGGLVYTAGVCGLVPVMAERYDDESQCSKTDERPASYFAVAVARKDSNVNWNNLKGKKSCHTAVGRTAGWVIPMGLIHNRTGTCNFDEYFSEGCAPGSPPNSRLCQLCQGSGGIPPEKCVASSHEKYFGYTGALRCLVEKGDVAFIQHSTVEENTGGKNKADWAKNLQMDDFELLCTDGRRANVMDYRECNLAEVPTHAVVVRPEKANKIRDLLERQEKRFGVNGSEKSKFMMFESQNKDLLFKDLTKCLFKVREGTTYKEFLGDKFYTVISSLKTCNPSDILQMCSFLEGK
With B1 the ORAC was 0.21 ± 0.04 µmol/mg.
